Assay [1] concerns the target T1, GDF15 (Homo sapiens (Human), UniProt Q99988 30-308).
T1 sequence: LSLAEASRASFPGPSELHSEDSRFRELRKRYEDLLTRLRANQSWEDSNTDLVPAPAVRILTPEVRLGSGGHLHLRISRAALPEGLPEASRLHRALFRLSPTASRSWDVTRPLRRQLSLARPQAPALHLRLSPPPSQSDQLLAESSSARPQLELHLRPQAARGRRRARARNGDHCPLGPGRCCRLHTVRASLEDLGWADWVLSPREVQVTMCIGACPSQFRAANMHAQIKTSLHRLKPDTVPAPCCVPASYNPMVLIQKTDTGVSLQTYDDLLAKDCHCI
In words: cell-based or functional assay.

Assay [2] deals with T2, Cyno GDF15 Fc (cyno, UniProt G7PWZ3 193-308).
T2 construct: also called cyno GDF15-Fc fusion
T2 sequence: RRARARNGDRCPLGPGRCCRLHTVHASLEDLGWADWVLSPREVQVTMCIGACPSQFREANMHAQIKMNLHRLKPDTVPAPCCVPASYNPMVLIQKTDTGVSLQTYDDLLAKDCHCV
The assay is described as follows: Octet BLI, Fab monovalent. For orientation: BLI is a label-free optical method that tracks binding on a fibre tip over time.

Assay [3] has as its target T3, Mouse GDF15 Fc (mouse, UniProt Q9Z0J7 189-303, limits assumed).
T3 construct: also called mouse GDF15Fc fusion
T3 sequence (looked up): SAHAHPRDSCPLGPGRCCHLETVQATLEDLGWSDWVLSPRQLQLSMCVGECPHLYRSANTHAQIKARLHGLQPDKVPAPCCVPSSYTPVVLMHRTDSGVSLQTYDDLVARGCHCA
In words: Octet BLI, Fab monovalent.

For assay [4], the target named is T4, GDNF (UniProt P39905 78-211).
T4 sequence (looked up): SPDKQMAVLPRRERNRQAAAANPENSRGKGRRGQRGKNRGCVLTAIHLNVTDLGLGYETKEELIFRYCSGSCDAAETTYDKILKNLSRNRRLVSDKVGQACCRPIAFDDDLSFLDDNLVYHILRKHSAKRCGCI
The assay is described as follows: Octet BLI, IgG on tip, avid.

Assay [5] has as its target GDF8 (UniProt O14793 267-375). The assay is described as follows: Octet BLI, IgG on tip, avid.
Assay [6] addresses T5, GDF11 (UniProt O95390 299-407).
T5 construct: Also the GDF-11 ligand of the ActRIIB/SMAD reporter assay
In words: Octet BLI, IgG on tip, avid.

Assay [7] concerns the target T6, Human Activin A Fc (human, UniProt P08476 311-426).
T6 sequence (looked up): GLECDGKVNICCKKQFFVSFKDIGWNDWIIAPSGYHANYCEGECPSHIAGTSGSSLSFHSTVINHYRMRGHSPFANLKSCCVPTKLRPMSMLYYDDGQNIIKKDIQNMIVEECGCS
The assay is described as follows: Octet BLI, IgG on tip, avid.

Assay [8] addresses T7, Human Activin B (human, UniProt P09529 293-407).
T7 construct: Also used for the Activin B ligand of the ActRIIB/SMAD reporter assay, where the species is not restated
T7 sequence (looked up): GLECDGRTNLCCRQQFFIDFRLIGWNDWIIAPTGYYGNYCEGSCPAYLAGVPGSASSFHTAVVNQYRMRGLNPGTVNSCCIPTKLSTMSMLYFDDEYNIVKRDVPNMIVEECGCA
The assay is described as follows: Octet BLI, IgG on tip, avid.

In assay [9] the target is T8, Human BMP10 (human, UniProt O95393 317-424).
T8 sequence (looked up): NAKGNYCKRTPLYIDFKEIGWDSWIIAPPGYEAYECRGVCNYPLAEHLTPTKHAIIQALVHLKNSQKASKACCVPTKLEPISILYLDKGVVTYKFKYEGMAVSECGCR
The assay is described as follows: Octet BLI, IgG on tip, avid.

Changes are numbered by the printed parent chain.

The text below walks through data of patent US20250019427A1 (BYOMASS, published 2025).

T5 sequence (O95390 299-407 limits assumed): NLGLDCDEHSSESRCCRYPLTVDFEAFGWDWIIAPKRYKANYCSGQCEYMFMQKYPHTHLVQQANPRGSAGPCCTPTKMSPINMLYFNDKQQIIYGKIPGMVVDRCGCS

B1: Clone M Fab (Fab, V domains shown)
VH: QVQLVQSGAEVKKPGASVKVSCKASGYTFDSYGINWVRQAPGQGLEWMGWISAYSGDTAYAQELQGRVTMTTDTSTSTAYMELRSLRSDDTAVYYCVRDTQYGGSPYWGQGTLVTVSS
VL: EIVMTQSPATLSVSPGERATLSCRASQSVSSNLAWYQQKPGQAPRLLIYGASTRATGIPARFSGSGSGTEFTLTISSLQSEDFAVYYCQQYNNWPITFGGGTKVEIK
notes: Fab format
Broadly, the Kd is a measure of binding affinity in units of concentration. A high value points to lower affinity. Regarding B1, the “GDF15 GFRAL RET pERK Fab IC50 pM” value in assay [1] worked out at 1370 pM. In addition, the values for the Kd in assay [2] and in assay [3] were 1.91 nM and 31.4 nM, respectively.

B2: Clone N Fab (Fab, V domains shown)
VH: B1 VH with D30T, S31D, N35F, S52T, A59H, E63K
VL: B1 VL
notes: Fab format
In the case of B2, in assay [1], the “GDF15 GFRAL RET pERK Fab IC50 pM” value turned out to be 322 pM. The molecule also gave a Kd in assay [3] of 2.56 nM.

B3: Clone H Fab (Fab, V domains shown)
VH: QVQLVQSGAEVKKPGSSVKVSCKASGGTFSSYYISWVRQAPGQGLEWMGGIAPISGTASYAQKFQGRVTITADESTSTAYMELSSLRSEDTAVYYCARGLAYDGYFDLWGRGTLVTVSS
VL: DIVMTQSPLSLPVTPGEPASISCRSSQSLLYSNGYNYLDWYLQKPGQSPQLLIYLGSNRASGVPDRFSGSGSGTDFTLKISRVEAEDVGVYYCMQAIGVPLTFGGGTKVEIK
notes: Fab format
Consider B3, for which the “GDF15 GFRAL RET pERK Fab IC50 pM” value in assay [1] is 24.6 pM. Moreover, the figures for the Kd in [2] and in assay [3] were 1.42 nM and 50.9 nM, respectively.

B4: Clone C Fab (Fab, V domains shown)
VH: QVQLQESGPGLVKPSQTLSLTCTVSGGSISSGGYYWSWIRQHPGKGLEWIGAIVYSGHTYYNPSLKSRVTISVDTSKNQFSLKLSSVTAADTAVYYCARGVEYQHFSLWGQGTLVTVSS
VL: not shown
notes: Fab format; also called Fab of Clone C
For the molecule B4, the “GDF15 GFRAL RET pERK Fab IC50 pM” value in [1] was determined as 36.8 pM. In addition, the Kd in assay [2] came to 0.36 nM; in assay [3], 156 nM.

B5: Clone D Fab (Fab, V domains shown)
VH: B4 VH with S30N, S37T, V54Y, H58S, Y60V, S107N, L108E
VL: not shown
notes: Fab format
For B5, in assay [1], the “GDF15 GFRAL RET pERK Fab IC50 pM” value turned out to be 27 pM. The Kd in assay [2] amounted to 0.562 nM; in assay [3], 157 nM.

B6: Clone Q Fab (Fab, V domains shown)
VH: B4 VH with Y34I, S37T, V54A, H58S, V101I, S107D, L108Y
VL: not shown
notes: Fab format
As to B6, the Kd is 0.327 nM in assay [2] and 204 nM in assay [3].

B7: Clone R Fab (Fab, V domains shown)
VH: B4 VH with Y34I, S37T, V54A, H58S, K66E, V101I, S107D, L108Y
VL: not shown
notes: Fab format
With B7, the Kd was found to be 0.366 nM in assay [2] and 234 nM in [3].

B8: Clone F IgG (antibody, V domains shown)
VH: QVQLVQSGAEVKKPGSSVKVSCKASGGTFGGYAISWVRQAPGQGLEWMGGIIPPYATANYAQKFQGRVTITADESTSTAYMELSSLRSEDTAVYYCARGVGTTHLDVWGQGTMVTVSS
VL: not shown
notes: IgG format
Turning to B8, the “GDF15 - GFRAL RET pERK IC50 (pM)” value in assay [1] was 34.9 pM. Moreover, the “GDF15 - GFRAL-RET Luciferase IC50 (pM)” value in assay [1] stood at 91.3 pM. Moreover, the binding result in assay [4], in [5], in assay [6], in assay [7], in assay [8] and in assay [9] was “no binding (tested: 100 nM)” each time.

B9: Clone F Fab (Fab, V domains shown)
VH: B8 VH
VL: not shown
notes: Fab format
On to B9, for which, in assay [1], the “GDF15 GFRAL RET pERK Fab IC50 pM” value amounted to 11.2 pM. Also, the results for the Kd in assay [2] and in assay [3] were 0.553 nM and 26.1 nM, respectively.

B10: Clone E Fab (Fab, V domains shown)
VH: QVQLVQSGAEVKKPGASVKVSCKASGYTFTSYGINWVRQAPGQGLEWMGWITAYSGDTNYAQKLQGRVTMTTDTSTSTAYMELRSLRSDDTAVYYCARGPGQYADVDVWGQGTMVTVSS
VL: DIQMTQSPSSVSASVGDRVTITCRASQGISSWLAWYQQKPGKAPKLLIYAASSLQSGVPSRFSGSGSGTDFTLTISSLQPEDFATYYCQQANSFPITFGGGTKVEIK
notes: Fab format
In the case of B10, the “GDF15 GFRAL RET pERK Fab IC50 pM” value in assay [1] was 46.7 pM. For the same molecule, the values for the Kd in assay [2] and in [3] were 0.413 nM and 3.08 nM, respectively.

B11: Clone K Fab (Fab, V domains shown)
VH: QVQLVQSGAEVKKPGASVKVSCKASGYTFTNEGISWVRQAPGQGLEWMGWISAYTADTFYAQKLQGRVTMTTDTSTSTAYMELRSLRSDDTAVYYCARTRHDTSGLRFDYWGQGTLVTVSS
VL: B10 VL with S30D, A91V, N92H
notes: Fab format
Turning to B11, in assay [1], the “GDF15 GFRAL RET pERK Fab IC50 pM” value stood at 169 pM. The Kd stood at 2.4 nM in assay [2] and 333 nM in assay [3].

B12: Clone O Fab (Fab, V domains shown)
VH: QVQLVQSGAEVKKPGATVKVSCKASGYTFDSLGMSWVRQAPGQGLEWMGYISTYSGDTVYAQKLQGRVTMTTDTSTSTAYMELRSLRSDDTAVYYCARESGQQVSALDPWGQGTLVTVSS
VL: B10 VL with S31R, A91G, N92A, I96L
notes: Fab format
As for B12, the Kd was 0.277 nM in assay [2] and 11.6 nM in [3].

B13: Clone T Fab (Fab, V domains shown)
VH: B10 VH
VL: B10 VL with N92S, S93Q
notes: Fab format
For B13, the Kd was determined as 0.369 nM in [2] and 1.92 nM in assay [3].

B14: Clone L Fab (Fab, V domains shown)
VH: B11 VH with T30A, N31S, E32Y, G33D, S35I, Y54L, T55S, A56G, F59V, L106I
VL: B10 VL with S30D, A91V, N92H
notes: Fab format
B14: the “GDF15 GFRAL RET pERK Fab IC50 pM” value in assay [1] came to 2.1 µM. Moreover, the Kd was 1.56 nM in assay [2] and 229 nM in assay [3].

B15: Clone I Fab (Fab, V domains shown)
VH: B10 VH with S31D, Y32E, N59V
VL: B10 VL
notes: Fab format
On to B15, for which, in [1], the “GDF15 GFRAL RET pERK Fab IC50 pM” value was determined as 111 pM. The Kd in assay [2] was determined as 1.38 nM; in assay [3], 1.45 nM.

B16: Clone S Fab (Fab, V domains shown)
VH: B10 VH
VL: B10 VL with M4L, S31P
notes: Fab format
For B16, the Kd in assay [2] stood at 0.252 nM; in assay [3], 1.36 nM.
